Data taken from article PMC3563642, “MERTK Interactions with SH2-Domain Proteins in the Retinal Pigment Epithelium” (PLoS ONE, 2013).

T1: 6xHis-rMERTK(571–999), full-length human MERTK cytoplasmic domain (human, UniProt Q12866 571-999, autophosphorylated on tyrosine (incubated with ATP/MgCl2); sites Y749, Y753, Y754 were mapped on rMERTK571–864, not on this construct)
T1 construct: Expressed from the pET28a-LIC vector; also called MERTK intracellular domain; source: E. coli BL21 DE3 Gold, purified (Ni2+-NTA, Sephacryl S-200 HR), autophosphorylated with 10 mM ATP, 10 mM MgCl2
T1 sequence (looked up): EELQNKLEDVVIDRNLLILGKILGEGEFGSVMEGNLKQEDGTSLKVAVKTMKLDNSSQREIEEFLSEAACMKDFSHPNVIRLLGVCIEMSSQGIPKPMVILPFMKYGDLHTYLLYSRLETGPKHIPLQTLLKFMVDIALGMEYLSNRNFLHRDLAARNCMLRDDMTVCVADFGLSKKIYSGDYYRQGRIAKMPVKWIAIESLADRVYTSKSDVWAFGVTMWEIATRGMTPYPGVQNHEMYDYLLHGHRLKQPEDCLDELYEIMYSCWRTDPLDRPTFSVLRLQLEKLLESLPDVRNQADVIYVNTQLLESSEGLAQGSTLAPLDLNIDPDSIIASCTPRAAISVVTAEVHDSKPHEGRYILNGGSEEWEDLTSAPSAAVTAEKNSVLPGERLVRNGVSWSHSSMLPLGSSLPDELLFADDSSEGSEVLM

B1: HCK GST-SH2 domain fusion protein (domain or fragment, human, UniProt P08631 144-241, looked up)
chain: WFFKGISRKDAERQLLAPGNMLGSFMIRDSETTKGSYSLSVRDYDPRQGDTVKHYKIRTLDNGGFYISPRSTFSTLQELVDHYKKGNDGLCQKLSVPC
notes: pGEX2T construct from a library of SH2 domains; also called rSH2-domain fusion protein corresponding to HCK; source: E. coli BL21 DE3 Gold, purified (glutathione-agarose, Sephacryl S-200 HR)
B2: VAV1 GST-SH2 domain fusion protein (domain or fragment, human, UniProt P15498 671-765, looked up)
chain: WYAGPMERAGAESILANRSDGTFLVRQRVKDAAEFAISIKYNVEVKHIKIMTAEGLYRITEKKAFRGLTELVEFYQQNSLKDCFKSLDTTLQFPF
notes: pGEX2T construct from a library of SH2 domains; also called rSH2-domain fusion protein corresponding to VAV1; source: E. coli BL21 DE3 Gold, purified (glutathione-agarose, Sephacryl S-200 HR)
B3: VAV3 GST-SH2 domain fusion protein (domain or fragment, human, UniProt Q9UKW4 672-766, looked up)
chain: WYAGAMERLQAETELINRVNSTYLVRHRTKESGEYAISIKYNNEAKHIKILTRDGFFHIAENRKFKSLMELVEYYKHHSLKEGFRTLDTTLQFPY
notes: pGEX2T construct from a library of SH2 domains; also called rSH2-domain fusion protein corresponding to VAV3; source: E. coli BL21 DE3 Gold, purified (glutathione-agarose, Sephacryl S-200 HR)

target: T1, 6xHis-rMERTK(571–999), full-length …; experiment: pull-down; Ni2+-NTA pull down: GST-rSH2-domain protein (10 µg) incubated with autophosphorylated 6xHis-rMERTK571–999 (10 µg) in 50 mM NaH2PO4, 300 mM NaCl, 10 mM imidazole, 0.1 µM PMSF, 1 h at 4°C, then Ni2+-NTA resin 0.5 h; washes with 50 mM imidazole, elution with 500 mM imidazole; Coomassie-stained SDS gels; negative control omits rMERTK; conditions: both partners purified

Binding result, binds:
B1
B2
B3
